The source of these data is the RNAGym collection of RNA variant scans (doi:10.1093/molbev/msab373).

First the molecules themselves.
B1: Azoarcus group I ribozyme (parent)
chain: GUGCCUUGCGCCGGGAAACCACGCAAGGGAUGGUGUCAAAUUCGGCGAAACCUAAGCGCCCGCCCGGGCGUAUGGCAACGCCGAGCCAAGCUUCGGCGCCUGCGCCGAUGAAGGUGUAGAGACUAGACGGCACCCACCUAAGGCAAACGCUAUGGUGAAGGCAUAGUCCAGGGAGUGGCGAAAGUCACACAAACCGG

The variants in the series derive from B1. The series is described as follows: reverse-splicing fitness (ratio to wild type); higher = more active; in vitro selection; Mg2+ level not given. An outline of the steps: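 An in vitro group I ribozyme library with randomized positions was T7-transcribed and gel-purified. In triplicate, 10 pmol RNA in EPPS pH 7.5 was reacted with 50 pmoles of a 30-nt RNA substrate for 1 h at 37 °C across several added MgCl2 levels (1–48 mM), then stopped with EDTA. Products were reverse transcribed from a substrate-complementary primer, PCR-amplified and sequenced (HiSeq 4000). Fitness is a variant's read proportion after selection over that before, normalised to wild type.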
With GUGCCUUGCGCCGGGAAACCACGCAAGGGAUGGUGUCAAAUUCGGCGAAACCUAAGCGCCCGCCCGGGCGUAUGGCAACGCGGAGCCAAGCUUCGGCGCCUGCGCCGAUGGAGGUGUAGAGACUAGACGGCACCCACCUAAGGCCAACGCUAUGGUGAAGGCAUAGUCGAGGGAGCGGCGAAAGUCACACAAACCGG [C82G A111G A145C C169G U176C], the reverse-splicing fitness was determined as 0.0131.

GUGCCUUGCGCCGGGAAACCACGCAAGGGAUGGUGUCAAAUUCGGCGAAACCUAAGCGCCCGCCCGGGCGUAUGGCAACGCGGAGCCAAGCUUCGGCGCCUGCGCCGAUGGAGGUGUAGAGACUAGACGGCACCCACCUAAGGCCAACGUUAUGGUGAAGGCAUAGUCCAGGGAGGGGCGAAAGUCACACAAACCGG [C82G A111G A145C C150U U176G]: the reverse-splicing fitness came to 0.0267. With GUGCCUUGCGCCGGGAAACCACGCAAGGGAUGGUGUCAAAUUCGGCGAAACCUAAGCGCCCGCCCGGGCGUAUGGCAACGCGGAGCCAAGCUUCGGCGCCUGCGCCGAUGGAGGUGUAGAGACUAGACGGCACCCACCUAAGGCCAACGUUAUGGUGAAGGCAUAGUCCAGGGAGCGGCGAAAGUCACACAAACCGG [C82G A111G A145C C150U U176C] the figure was 0.0592. GUGCCUUGCGCCGGGAAACCACGCAAGGGAUGGUGUCAAAUUCGGCGAAACCUAAGCGCCCGCCCGGGCGUAUGGCAACGCGGAGCCAAGCUUCGGCGCCUGCGCCGAUGGAGGUGUAGAGACUAGACGGCACCCACCUAAGGCCAACGUUAUGGUGAAGGCAUAGUCCAGGGAGAGGCGAAAGUCACACAAACCGG [C82G A111G A145C C150U U176A]: the reverse-splicing fitness was 0.0557. With GUGCCUUGCGCCGGGAAACCACGCAAGGGAUGGUGUCAAAUUCGGCGAAACCUAAGCGCCCGCCCGGGCGUAUGGCAACGCGGAGCCAAGCUUCGGCGCCUGCGCCGAUGGAGGUGUAGAGACUAGACGGCACCCACCUAAGGCGAACGAUAUGGUGAAGGCAUAGUCCAGGGAGUGGCGAAAGUCACACAAACCGG [C82G A111G A145G C150A] the figure was 0.0499; with GUGCCUUGCGCCGGGAAACCACGCAAGGGAUGGUGUCAAAUUCGGCGAAACCUAAGCGCCCGCCCGGGCGUAUGGCAACGCGGAGCCAAGCUUCGGCGCCUGCGCCGAUGGAGGUGUAGAGACUAGACGGCACCCACCUAAGGCCAACGCUAUGGUGAAGGCAUAGUCUAGGGAGUGGCGAAAGUCACACAAACCGG [C82G A111G A145C C169U], 0.0132. The figure for GUGCCUUGCGCCGGGAAACCACGCAAGGGAUGGUGUCAAAUUCGGCGAAACCUAAGCGCCCGCCCGGGCGUAUGGCAACGCGGAGCCAAGCUUCGGCGCCUGCGCCGAUGGAGGUGUAGAGACUAGACGGCACCCACCUAAGGCCAACGCUAUGGUGAAGGCAUAGUCAAGGGAGUGGCGAAAGUCACACAAACCGG [C82G A111G A145C C169A] is 0.00733; for GUGCCUUGCGCCGGGAAACCACGCAAGGGAUGGUGUCAAAUUCGGCGAAACCUAAGCGCCCGCCCGGGCGUAUGGCAACGCGGAGCCAAGCUUCGGCGCCUGCGCCGAUGGAGGUGUAGAGACUAGACGGCACCCACCUAAGGCCAACGCUAUGGUGAAGGCAUAGUCGAGGGAGUGGCGAAAGUCACACAAACCGG [C82G A111G A145C C169G] it is 0.00994; for GUGCCUUGCGCCGGGAAACCACGCAAGGGAUGGUGUCAAAUUCGGCGAAACCUAAGCGCCCGCCCGGGCGUAUGGCAACGCGGAGCCAAGCUUCGGCGCCUGCGCCGAUGGAGGUGUAGAGACUAGACGGCACCCACCUAAGGCCAACGUUAUGGUGAAGGCAUAGUCAAGGGAGGGGCGAAAGUCACACAAACCGG [C82G A111G A145C C150U C169A U176G] it is 0.00694. With GUGCCUUGCGCCGGGAAACCACGCAAGGGAUGGUGUCAAAUUCGGCGAAACCUAAGCGCCCGCCCGGGCGUAUGGCAACGCGGAGCCAAGCUUCGGCGCCUGCGCCGAUGGAGGUGUAGAGACUAGACGGCACCCACCUAAGGCCAACGUUAUGGUGAAGGCAUAGUCGAGGGAGGGGCGAAAGUCACACAAACCGG [C82G A111G A145C C150U C169G U176G] the figure was 0.00619; with GUGCCUUGCGCCGGGAAACCACGCAAGGGAUGGUGUCAAAUUCGGCGAAACCUAAGCGCCCGCCCGGGCGUAUGGCAACGCGGAGCCAAGCUUCGGCGCCUGCGCCGAUGGAGGUGUAGAGACUAGACGGCACCCACCUAAGGCCAACGUUAUGGUGAAGGCAUAGUCGAGGGAGAGGCGAAAGUCACACAAACCGG [C82G A111G A145C C150U C169G U176A], 0.0203. Consider GUGCCUUGCGCCGGGAAACCACGCAAGGGAUGGUGUCAAAUUCGGCGAAACCUAAGCGCCCGCCCGGGCGUAUGGCAACGCGGAGCCAAGCUUCGGCGCCUGCGCCGAUGGAGGUGUAGAGACUAGACGGCACCCACCUAAGGCCAACGUUAUGGUGAAGGCAUAGUCGAGGGAGCGGCGAAAGUCACACAAACCGG [C82G A111G A145C C150U C169G U176C], for which the reverse-splicing fitness was found to be 0.0114. With GUGCCUUGCGCCGGGAAACCACGCAAGGGAUGGUGUCAAAUUCGGCGAAACCUAAGCGCCCGCCCGGGCGUAUGGCAACGCGGAGCCAAGCUUCGGCGCCUGCGCCGAUGGAGGUGUAGAGACUAGACGGCACCCACCUAAGGCCAACGUUAUGGUGAAGGCAUAGUCUAGGGAGUGGCGAAAGUCACACAAACCGG [C82G A111G A145C C150U C169U] the figure was 0.0102; with GUGCCUUGCGCCGGGAAACCACGCAAGGGAUGGUGUCAAAUUCGGCGAAACCUAAGCGCCCGCCCGGGCGUAUGGCAACGCGGAGCCAAGCUUCGGCGCCUGCGCCGAUGGAGGUGUAGAGACUAGACGGCACCCACCUAAGGCCAACGUUAUGGUGAAGGCAUAGUCGAGGGAGUGGCGAAAGUCACACAAACCGG [C82G A111G A145C C150U C169G], 0.00753.

Regarding GUGCCUUGCGCCGGGAAACCACGCAAGGGAUGGUGUCAAAUUCGGCGAAACCUAAGCGCCCGCCCGGGCGUAUGGCAACGCGGAGCCAAGCUUCGGCGCCUGCGCCGAUGGAGGUGUAGAGACUAGACGGCACCCACCUAAGGCGAACGAUAUGGUGAAGGCAUAGUCAAGGGAGUGGCGAAAGUCACACAAACCGG [C82G A111G A145G C150A C169A], the reverse-splicing fitness worked out at 0.011.
